This is an account of results in paper PMC4964276 (The Biochemical journal, 2016).

The target in this test is RIIα-D/D(1–44) used for ITC (human, UniProt P13861 1-44). Nature of the test: ITC.
Sequence of RIIα-D/D(1–44) used for ITC (P13861 1-44): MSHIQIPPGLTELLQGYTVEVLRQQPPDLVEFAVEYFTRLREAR

Take NGGEPDDAELVRLSKRLVENAVLKAVQQYLEETQNKNKPGE (domain or fragment, human) [AKAP18β(43–83)]: the Kd is 0.6 nM, the dH was -22550 ± 171 and the “stoichiometry N” value worked out at 0.98 sites.
